Molecular target: Rluc-tagged smAKAP, a peptide derived from an RI-specific AKAP
Test: Renilla luciferase (Rluc) protein-fragment complementation assay (PCA)
Conditions: bar labelled L50R:smAKAP; parent: est. 13; read off a plot

Which response does the source give for “Rluc-tagged RIβ WT (Renilla luciferase protein-fragment complementation hybrid protein) (from UniProt P31321) L50R” here?
Its response is 1.5 RLU 10^4.

— article PMC11531844
